Test results from US20190169232A1.

What was measured:
[1] = molecular target: C1q purified from pooled normal human sera (human) (UniProt P02746); assay: SPR kinetics, C1q immobilised on a CM5 chip, HMGB1 redox form as analyte in a concentration series, 1:1 fit
[2] = molecular target: LAIR-1 on human monocytes (human) (UniProt Q6GTX8); assay: co-immunoprecipitation from human monocytes, IP anti-LAIR-1, blot anti-SHP-1; cells without C1q and without HMGB1
[3] = molecular target: LAIR-1 on human monocytes (human) (UniProt Q6GTX8); assay: co-immunoprecipitation from human monocytes, IP anti-LAIR-1, blot anti-SHP-1; cells treated with C1q and HMGB1
[4] = molecular target: LAIR-1 on human monocytes (human) (UniProt Q6GTX8); assay: co-immunoprecipitation from human monocytes, IP anti-LAIR-1, blot anti-SHP-1; cells treated with HMGB1 alone
[5] = molecular target: LAIR-1 on human monocytes (human) (UniProt Q6GTX8); assay: co-immunoprecipitation from human monocytes, IP anti-LAIR-1, blot anti-SHP-1; cells treated with C1q alone

LAIR-1 on human monocytes (human), sequence (Q6GTX8 22-287): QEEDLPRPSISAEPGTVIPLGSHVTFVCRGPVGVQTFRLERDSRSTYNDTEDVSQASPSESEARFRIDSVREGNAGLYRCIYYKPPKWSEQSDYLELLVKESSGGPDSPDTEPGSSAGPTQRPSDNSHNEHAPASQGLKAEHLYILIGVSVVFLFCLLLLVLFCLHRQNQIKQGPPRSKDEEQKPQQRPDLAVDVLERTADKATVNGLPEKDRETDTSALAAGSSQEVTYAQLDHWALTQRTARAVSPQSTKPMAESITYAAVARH
Oxidized HMGB1 (ligand), sequence (P09429 whole entry): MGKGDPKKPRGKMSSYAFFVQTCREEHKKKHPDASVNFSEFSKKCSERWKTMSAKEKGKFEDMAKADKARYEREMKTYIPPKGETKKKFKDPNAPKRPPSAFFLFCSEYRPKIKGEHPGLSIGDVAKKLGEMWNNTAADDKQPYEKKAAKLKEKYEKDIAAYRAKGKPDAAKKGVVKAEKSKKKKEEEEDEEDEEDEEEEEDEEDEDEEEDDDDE
C1q purified from pooled normal human sera (human), sequence (chain, as listed by the source, chain 1 of 3): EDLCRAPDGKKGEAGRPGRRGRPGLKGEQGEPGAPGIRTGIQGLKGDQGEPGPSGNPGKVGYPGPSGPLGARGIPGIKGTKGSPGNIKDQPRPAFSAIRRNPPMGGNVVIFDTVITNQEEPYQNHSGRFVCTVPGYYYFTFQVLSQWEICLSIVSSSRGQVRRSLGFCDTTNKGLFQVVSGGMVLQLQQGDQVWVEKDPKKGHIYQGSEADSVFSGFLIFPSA
C1q purified from pooled normal human sera (human), sequence (P02746 28-253, chain 2 of 3): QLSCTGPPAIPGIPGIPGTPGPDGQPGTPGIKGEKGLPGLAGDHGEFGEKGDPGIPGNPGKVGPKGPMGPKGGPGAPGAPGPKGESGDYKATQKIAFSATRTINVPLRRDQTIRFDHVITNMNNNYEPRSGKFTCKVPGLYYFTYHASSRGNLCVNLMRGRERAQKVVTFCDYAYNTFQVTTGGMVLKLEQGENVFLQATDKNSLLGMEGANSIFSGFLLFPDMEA
C1q purified from pooled normal human sera (human), sequence (P02747 29-245, chain 3 of 3): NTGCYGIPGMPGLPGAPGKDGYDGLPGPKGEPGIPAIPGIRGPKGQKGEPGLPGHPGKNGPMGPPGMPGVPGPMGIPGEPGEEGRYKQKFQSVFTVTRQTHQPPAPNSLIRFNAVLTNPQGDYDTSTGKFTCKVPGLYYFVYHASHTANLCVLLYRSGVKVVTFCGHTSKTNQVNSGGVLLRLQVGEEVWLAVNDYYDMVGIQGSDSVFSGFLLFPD

Row | Kd [1] [nM] | signal intensity ratio (number under the SHP-1 blot) [2] | signal intensity ratio (number under the SHP-1 blot) [3] | signal intensity ratio (number under the SHP-1 blot) [4] | signal intensity ratio (number under the SHP-1 blot) [5] | Substance
1 | 1560 |  |  |  |  | Oxidized HMGB1 (ligand)
2 |  | 1 | 4.4 | 0.7 | 2.6 | SHP-1 (from UniProt P29350 1-595)
